Literature values as cited in US20210079079A1, “SYSTEMS AND METHODS FOR LOCAL MODULATION OF WNT SIGNALING” (Ortheus, Inc., priority 2018, published 2021).

Conditions: in vivo; cited from earlier work

In the case of “DKK1: a secreted protein that inhibits canonical Wnt signaling”, the elimination half-life is listed as “less than 30 minutes”.
